# Measured values reported in the DeepSol protein solubility set.
# Assay: soluble on expression in E. coli; label from the status in PepcDB or PDB records
row,Sequence,soluble on expression in E. coli
1,MAKKTSSKGKLPPGPSPLPVLGNLLQMDRKGLLRSFLRLREKYGDVFTVYLGSRPVVVLCGTDAIREALVDQAEAFSGRGKIAVVDPIFQGYGVIFANGERWRALRRFSLATMRDFGMGKRSVEERIQEEARCLVEELRKSKGALLDNTLLFHSITSNIICSIVFGKRFDYKDPVFLRLLDLFFQSFSLISSFSSQVFELFSGFLKYFPGTHRQIYRNLQEINTFIGQSVEKHRATLDPSNPRDFIDVYLLRMEKDKSDPSSEFHHQNLILTVLSLFFAGTETTSTTLRYGFLLMLKYPHVTERVQKEIEQVIGSHRPPALDDRAKMPYTDAVIHEIQRLGDLIPFGVPHTVTKDTQFRGYVIPKNTEVFPVLSSALHDPRYFETPNTFNPGHFLDANGALKRNEGFMPFSLGKRICLGEGIARTELFLFFTTILQNFSIASPVPPEDIDLTPRESGVGNVPPSYQIRFLARHHHHHH,soluble
2,MAKLDETLTMLKALTDAKGVPGNEREARDVMKTYIAPYADEVTTDGLGSLIAKKEGKSGGPKVMIAGHLDEVGFMVTQIDDKGFIRFQTLGGWWSQVMLAQRVTIVTKKGDITGVIGSKPPHILPSEARKKPVEIKDMFIDIGATSREEAMEWGVRPGDMIVPYFEFTVLNNEKMLLAKAWDNRIGCAVAIDVLKQLKGVDHPNTVYGVGTVQEEVGLRGARTAAQFIQPDIAFAVDVGIAGDTPGVSEKEAMGKLGAGPHIVLYDATMVSHRGLREFVIEVAEELNIPHHFDAMPGVGTDAGAIHLTGIGVPSLTIAIPTRYIHSHAAILHRDDYENTVKLLVEVIKRLDADKVKQLTFDE,not soluble
3,MAKNDKINFSTPSGFPEFLPSEKRLELYLLDTIRRVYESYGFTPIETPAVERLEVLQAKGNQGDNIIYGLEPILPPNRQAEKDKSGDTGSEARALKFDQTVPLAAYIARHLNDLTFPFARYQMDVVFRGERAKDGRFRQFRQCDIDVVGREKLSLLYDAQMPAIITEIFEAVNIGDFVIRINNRKVLTGFFQSLNISETQIKSCISIIDNLEKIGEAKVKLELEKEGINPEQTQKIIDFVKIDGSVDDVLDKLKHLSQTLPESEQFNLGVSELETVITGVRNLGVPDKRFCIDLAIARGLNYYTGTVYETTLIGHEALGSICSGGRYEELVGTFIGEKMPGVGISIGLTRLISRLLKAGILNTLPPTPAQVVVVNMQDELMPTYLKVSQQLRQAGLNVITNFEKRQLGKQFQAADKQGIRFCVIIGADEAAAQKSSLKDLQSGEQVEVALADLAEEIKRRLT,soluble
4,MAKNPKDGESRTFLISVAAELAGMHAQTLRTYDRLGLVSPRRTSGGGRRYSLHDVELLRQVQHLSQDEGVNLAGIKRIIELTSQVEALQSRLQEMAEELAVLRANQRREVAVVPKSTALVVWKPRR,soluble
5,MAKTTGILDKSLSRGKTEINLSTFAVLFSEMVLYAQNRSETVTDIHDKIASYGKQVGLRMFDIITLREKGYKRETKLLGMLMFIKSTVWKNLFGKEADKLERSNDDHCTYLLIEKDPMVNTYISVPRDKGVLNCAAFAAGIVEAILESASFKCKVTAHWHNGTAYVIQFDESVIARENSLLDSNR,not soluble
6,MAKVTGTKVITNQVRLSFVHVLEPHAMEEGQEKKYSCMLIIPKDDKETLKAMKEAIKTAYEGAKGDKLKGVKFERLKTTLRDGDEEMDTEERPEFENAMFINVSSKTKPQVVKREDGVLVKTDDPDEVYSGVYAIASINFYAYSTAGNKGVTAGLNNILTLCKGDFLGGRANAESDFGDLEWEDEEDDMFS,not soluble
7,MAKVTVILTSYNKPNTVGAAIESVLSQSFQDWELWIMDDASNEETQQVIDSYMLYPNVYYYNSQVKDEERHKSTRYATLINEAISRSTGDYLCYLTDDNYYLPERLQKMVQYLERYPSVDVVYSKQLVRTVDNQLITQAERIRPTKGTIRYAENIVDHCSVMHRRSLAEKVYETYGSYWNDDPICWHNGDAFFWNRLSAFALFYPINEVLDVCLKSPTSFQALNAFLPEYLPSGTLVKGLGADVYLIEDNHRRAITPTMFQQLHYREENVVHIPDPVLFKYKEGPAIDEHIWEQGKLFPNHRLIKASQEPHIYYVENHRKRHILTHKEFRLYKFRASEVVEVSRSFLDSIPTGPPISAHVNNQHPLPEGLLVRCGFKFYLSGNNRLYPIKSRVMKKLNLQMKNAVFLDSRAIGRYEQGETIEWKTNKCQPRFNTSSLEHHHHHH,not soluble
8,MAKYEEAFKRQVVQEYLRGAVGTAGLSQKYGIGRSVIRRWINAWQRHGKSGLRKKHEAYSAEFKLTVLQRMWRDELSYQQVSAVFDLREAGGVSRWDRQYHEGGFDALQPRRKGGAPIMSQSKQDPQPAAQPAQDERSREDLLKENECLRAEVAYLKKLDALLRAKQQQAPKKKRKSLEHHHHHH,not soluble
9,MALALSLSACSPPLRRTRRAGFRTSCSIFANPAQRAKRKLLELISEEDRGLRTQKDPKKRDEIVNAIESMTVIGRSSITTDDSLSATWRLLWTTEKEQLFIIEKAGLFGTTAGDVLQVIDVNKRILNNVITFPPDGVFFVRSDIDIASPQRVNFRFNSAVLRGKNWELPLPPFGKGWFENVYMDGEIRVAKDIRGDYLIVDRAPYNWTESFV,soluble
10,MALHPAHPGAIIGHEAVLALLPRLTAQTLLFSGPEGVGRRTVARWYAWGLNRGFPPPSLGEHPDVLEVGPKARDLRGRAEVRLEEVAPLLEWCSSHPRERVKVAILDSAHLLTEAAANALLKLLEEPPSYARIVLIAPSRATLLPTLASRATEVAFAPVPEEALRALTQDPELLRYAAGAPGRLLRALQDPEGYRARMARAQRVLKAPPLERLALLRELLAEEEGVHALHAVLKRPEHLLALERAREALEGYVSPELVLARLALDLET,soluble
11,MALKAQNTISGKEGRLFLDGEEMAHIKTFEANVEKNKSEVNIMGRRMTGHKTTGANGTGTATFYKVTSQFVLIMMDYVKKGSDPYFTLQAVLDDASSGRGTERVTLYDVNFDSPKIAGLDVDSEALEEEVPFTFEDFDVPEQLKSTFLEHHHHHH,soluble
12,MALLDFFLSRKKNTANIAKERLQIIVAERRRSDAEPHYLPQLRKDILEVICKYVQIDPEMVTVQLEQKDGDISILELNVTLPEAEELK,not soluble
13,MALLDKLLTPVMNQYKQPINKCLKVLNKKNNKKTGVAKQNACMDKVWGQALAIITKQFVNKVCTAVAKKMNAKEWNCCKTYVVKVVNVTPYKRFNIVK,not soluble
14,MALLPFFDLTNFESDASEELGWLKYVGRVQTRVFPQHFKDNLEKVRKISETIDVIVDTTAELGPEACVNLLNAGALAILVNEEMLNELADISPNRLVLKTDTTDIGKIEKLSQVAGSIQWIGSAENYPPDFFERASKIIHKAVMPEGGGRTLYLEFPEQPSMEVLKSFSVHSVVPVLSSSFLTVKPAEEPKKLSLADLILISANTDREDGLFSTLVVNELGIALGLVYSSKESVAESLKTGTGVYQSRKRGLWYKGASSGAVQHLIHIDVDCDEDCLRFVVYQTGKGFCHLDTLHCFGQASGLCQLEKTLIDRKNNAPEGSYTARLFSDPKLLRAKIMEEAEELCDATTKENVIWEMADLMYFAITRCVGSGVSLNDISRHLDLKHRKVTRRKGDAKVAWQEKLKDKGGVANTSYTA,soluble
15,MALLRIFDAHCDALLKLWEDPAREYTDDPAIEANAVRLMEGGVRAQCFAIFVGPNIPFDQKFQVALQQAELFHEKILKKHPQFSFIERWDDLLTLDADQIGAILTLEGADPFGDDPTKLKTLYRLGVRSLGLTWNQANLCADGVGEPRGGGLTEWGKAVVSLNNEHHVLTDVSHLSERGFWDVIEYAQFPVATHSNAKAICKHRRNLTDAQLKALIEAGGFIGIVFHPHFLTGTDDASIDDVMKHIEHICSLGGQKHVGFGSNFDGIPCFVDGLEHAGRFQWFMDELLKRYDEELVRGFAWDNFLKATPISYVEGHHHHHH,soluble
16,MALNGTPALNVNWHGNYDVIVLGFGGAGASAARFAADNGAHVLVVDAAPFGREGGNTRYSAQHVVTGESLDKLTAYYQALGAPFSTPTKTLNAYLSGMSKIPAYFEKYLGIKAVSWKHDIKPGDAVAIKKTMAEYPELAGSDTIDFALVHKRDKDAALWKLLRQKVLERADNIDVWLDSRAQHLIQDPNTKVIQGVQIKRGERLLNIHANNGVVLAMGGFENNPELKQTYLHSDNLTPLGTLYNRGDGIKMAQEVDAKMWHMTNYESHGILPGLEHHHHHH,not soluble
17,MALPESESARTEQALGRLVGSLCVVTAQQGELSSAMLASWVSQATFSPPGLTVAVAKERAIESLLHKNSCFVLNILQEGNHLGLMKHFLKPFAPGGDRFADVATETAENGAPILTESLAYLECRVQQRLECGDHWVLYAVTDRGALLKDGVTAVHHRKSGDHYLEHHHHHH,not soluble
18,MALSKRELDELKPWIEKTVKRVLGFSEPTVVTAALNCVGKGMDKKKAADHLKPFLDDSTLRFVDKLFEAVEEGRSSRHS,soluble
19,MALTNAQILAVIDSWEETVGQFPVITHHVPLGGGLQGTLHCYEIPLAAPYGVGFAKNGPTRWQYKRTINQVVHRWGSHTVPFLLEPDNINGKTCTASHLCHNTRCHNPLHLCWESADDNKGRNWCPGPNGGCVHAVVCLRQGPLYGPGATVAGPQQRGSHFVV,soluble
20,MALTVAKSALEAIREKGLGGFMRMIREEGFMRCLPDGNLLQTKIHNIGATLVGVDKFGNKYYQKLGDTQYGRHRWVEYASKDRYNASQVPAEWHGWLHFITDHTGDELLSLKPKRYGLEHKENFSGEGDAYIYHSKGHTLNPGQKNWTRYQSWVPTKTQ,not soluble
21,MAMKDKLKNFFSMEDEEYEYEYIETERESHVEHEQKEKPAYNGNKPAGKQNVVSLQSVQKSSKVVLSEPRVYAEAQEIADHLKNRRADVVNLQRIQHDQAKRIVDFLSGTVYAIGGDIQRIGSDIFLCTPDNVDVSGTISELISEDEHQRWLEHHHHHH,not soluble
22,MANDPYIQSFTCFDGTRRLLTAALPEVALALKQAVAGGAAGPLLVFDNATGRSVDLDIRGSSEDLLARLVVAGERQPAEEAAPRGRGRPKLGVVAREVTLLPRHWEWLAAQPGGASVALRKLVEEARRSQSGRARQAQERAYHFMNAMAGDLPGFEEATRALFAGDREGFAERIAGWPTDVREHAAWLASDGES,not soluble
23,MANKLRNYTINFGPQHPAAHGVLRMILELDGEQIVRADPHIGLLHRGTEKLAETKTYLQALPYMDRLDYVSMMVNEQAYCLAVEKLVGIDVPIRAQYIRVMFAEVTRILNHLMGIGSHAFDIGAMTAILYAFRDREELMDLYEAVSGARMHAAYFRPGGVYRDLPDFMPKYEGSKFRNAKVLKQLNESREGTMLDFIDAFCERFPKNIDTLETLLTDNRIWKQRTVGIGVVSPERAMQKGFTGVMLRGSGVEWDVRKTQPYEVYDKMDFDIPVGVNGDCYDRYLCRMEEMRQSVRIIKQCSEWLRVNPGPVITTNHKFAPPKRTEMKTGMEDLIHHFKLFTEGMHVPEGETYTAVEHPKGEFGVYIISDGANKPYRLKIRAPGFAHLQGMDEMAKGHMLADVVAIIGTQDIVFGEVDR,not soluble
24,MANKLTILASVVAASTAMMATSAQAADTTLDKVTKQGFLTCGVSTGLPGFSNPNSKGEWEGIDVEYCQALAAAVLGDKTKVKYVPLTAKERFTALQSGEIDVLSRNTTWTLHRDTALGLNFVGVNYYDGQGFMVKKDLGISSAKELDGASVCVQSGTTTELNLADYFRNSGMSYKPVVFDTAAQTSKGFDAGRCDVLTTDQSGLYALRLNLKDPSSAAVLPEIISKEPLGPVVRQGDDQWFNIAKWTLAAMVNAEEYGITSKNADEMLKSQDPNIKRILGVDGPKGKGLGIRDDWGYQVVKQVGNYGESFERTVGKGSPLEIARGVNALWNAGGFMYAPPIR,not soluble
25,MANLPSSSGMFSRLLANVFNTTVASRCSASGRWWPQPEYELSKHRSRAPSMGIHRRTRLNVVDNSALGKEADTTGKLPYCIHVYKQGRRAKHMPHAELGDKILVAIRGQMRKAYVVGANTHVHYRKHGVPVTDQNMIVLLDEEGNPLGNRITAPIPTKLMANRGNVQFSKVLALANKFI,soluble
